Data from paper PMC4844702, “Selective inhibition of the kinase DYRK1A by targeting its folding process” (Nature Communications, 2016).

Target: CDC37 (UniProt Q16543)
Test: anti-FLAG plate capture, CDC37-nanoKAZ luminescence
Conditions: reference: wild type

Row | Substance | fold change (sites S97) | other results
1 | DYRK1A (from UniProt Q13627) K188R kinase-dead | 54 | –
2 | DYRK1A (from UniProt Q13627) S97A | 2.2 | –
3 | DYRK1A (from UniProt Q13627) Y319F/Y321F | – | fold change (sites Y319,Y321): 6.2
4 | DYRK1A (from UniProt Q13627) Y321F | – | fold change (sites Y321): 5.2
